The record followed here is article PMC7917791.

In this assay the target is HAP1 phage capsid (T4 phage mutant with a nonsense mutation in the hoc gene, no functional Hoc protein on the capsid) (T4 phage (mutant HAP1)). The experiment in a line: SEC; RFP-Hoc and new HAP1 virions produced together in infected E. coli; filtered lysate on Sepharose 4B (2.5 x 95 cm), 0.063 M phosphate buffer pH 7.2, 0.3 mL/min; phages eluted in the highest molecular weight fraction (A), non-incorporated RFP-Hoc in fraction B; fluorescence and titer of the fractions measured. In general terms: Size exclusion chromatography separates by hydrodynamic size, large species first.

Chain of RFP-Hoc fusion (red fluorescent protein fused to the N-terminal end of the T4 phage Hoc protein) (P18056 whole entry, the tested form may be a part): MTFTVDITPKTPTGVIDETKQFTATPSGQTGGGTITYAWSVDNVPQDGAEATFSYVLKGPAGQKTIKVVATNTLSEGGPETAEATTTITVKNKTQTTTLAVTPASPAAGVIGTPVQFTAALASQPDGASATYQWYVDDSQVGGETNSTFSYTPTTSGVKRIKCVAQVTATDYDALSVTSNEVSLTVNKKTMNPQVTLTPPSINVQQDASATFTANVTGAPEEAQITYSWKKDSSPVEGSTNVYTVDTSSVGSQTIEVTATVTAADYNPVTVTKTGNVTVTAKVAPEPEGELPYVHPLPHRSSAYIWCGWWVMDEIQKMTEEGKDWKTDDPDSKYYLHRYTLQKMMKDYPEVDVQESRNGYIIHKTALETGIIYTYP

The substance “RFP-Hoc fusion (red fluorescent protein fused to the N-terminal end of the T4 phage Hoc protein) (from UniProt P18056 1-376) (natural protein)” had a fluorescence of the phage fraction A after size exclusion chromatography of 5.12e+06 a.u.
